Paper PMC13335484

Key:
Gh-TDH wild-type [1] = biological target: T1, Gh-TDH wild-type (Grimontia hollisae, UniProt A0A377HK12 25-189); experiment: BLI; 50 mM EDTA; settings: protein: recombinant, chain copies: 4, label: 5'-biotin
Gh-TDH wild-type [2] = biological target: T1, Gh-TDH wild-type; experiment: BLI; 50 mM EDTA; BLI: PBS pH 7.4, 50 mM EDTA, 1 mg/mL BSA, 1000 rpm, temperature not stated; crystals: protein:ssDNA 1:1.3, hanging drop, 20 C; settings: protein: recombinant; chain copies: 4; label: 5'-biotin

CTCTATAGAGTTTTCTCTATAGAGTTCT (structured_DNA) [stem-loop dsDNA with 4-nt 3'-overhang] was tested, and the Kd (Gh-TDH wild-type [1]; hairpin, 3' overhang 4 nt) was 14.8 µM.

TTTTTTTTTTTT (ssDNA) [poly(dT12)] showed a Kd (Gh-TDH wild-type [1]) of ~3.08 µM.

For CCCCCCCCCCCC (ssDNA) [poly(dC12)], the Kd (Gh-TDH wild-type [1]) was ~3.08 µM.

With AAAAAAAAAAAA (ssDNA) [poly(dA12)] the Kd (Gh-TDH wild-type [2]) was ~3.08 µM.
